Data reported in the nanobody polyreactivity screen of Harvey et al. (2022).

Assay: yeast display, Sf9 membrane polyspecificity reagent, FACS + sequencing; frameworks hold sequencing errors
In short: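 Nanobodies came from a synthetic yeast display library in Saccharomyces cerevisiae BJ5465, induced with galactose for 36–48 hours and stained for 1 hour at 4 °C with 10% biotinylated, detergent-solubilized Sf9 membrane reagent. Cells were enriched on streptavidin microbeads and then FACS-sorted, with low and high (top ~1%) gates set on anti-HA fluorescence for expression and streptavidin fluorescence for reagent binding. Each polyreactivity label reflects the gate a clone came from. Genes were amplified by colony PCR, sequenced by MiSeq 2 × 250 and filtered by CDR length.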
With “QVQLVESGGGLVQAGGSLRLSCAASGRIFVQYAMGWYRQAPGKERELVAAISGSGGRTYYADSVKGRFTISRDNAKNTVYLQMNSLKPEDTAVYYCNTARRHGQTQGGDYWGQGTQLTVSS” the “polyreactivity (PSR sort gate)” value was “high polyreactivity”. For “QVQLVESGGGLIQAGGSLRLSCATSGSIFDDYAMGWYRQAPGKERELVAAISSSGTSTYYADSVKGRFTISRDNAKNTVYLQMKSLKPEDTAVYYCAARSAILKSGYLMDYWGQGTQVTVSS”, the “polyreactivity (PSR sort gate)” value was “low polyreactivity”. In the case of “QVQLVESGGGLVQAGGSLRLSCAASGYIFHNYAMGWYIQAPGKERELVAAITRSAGRTYYADSVKGRFTISRDNAKNTVYLQMNSLKPEDTAVYYCNARYGGRFYYCGQGTQVTVSS”, the “polyreactivity (PSR sort gate)” value is reported as “high polyreactivity”. With “QDQLVESGGGLVQAGGSLRLSCAASGSIFRVYAMGRYRQAPGKERELVAAISSIVGSTYYADSVKGRFTISRDNAKNSVYLQMNSLKPEDTAVYDCNKEGTWPRTGSEYDSWGQGSQVTVSS” the “polyreactivity (PSR sort gate)” value was “low polyreactivity”. With “QVQLVESGGGLVQAGGSLRLSCAASGSIFAGYAMGWYRQAPGKERELVATITSSSRTNYADSVKGRFTISRDNAKNTVYLQMNSLKPEDTAVYYCAARGRYVIDGYRMYYWGQGTQVTVSS” the “polyreactivity (PSR sort gate)” value was “high polyreactivity”. In the case of “QVQLVASGGGLVQAGGSLRLSCAASGRTSWYYAMGWYRHAPGKERELVAAITASGGSTYADSVKGRFTISRDNAKNTVYLQMNSLKPEDTAVYYCAAERPYSRVGYYYWGQGTQVTVSS”, the “polyreactivity (PSR sort gate)” value is reported as “high polyreactivity”. For “QVQLVESGGGLVQAGGSLRLSCAASGSIVGSNAMGWYRQAPGKERELVAAITWSDGSPYYADSVKGRFTISRDNAKNTVYLQMNRLKPEDTAVYVCATDYGYSWYDYWGQGTQVTVSS”, the “polyreactivity (PSR sort gate)” value was “low polyreactivity”. In the case of “QVQLVESGGGLVQAGGSIRLSCAASGRTFKKYAMGWYRQAPGKERELVAAITGSGGSTYYADSVKGRFTISRDNAKNTVYLQINSLKPEDTAVYYCAAYAYGVGHSQDGGNYWGQGNQVTVSS”, the “polyreactivity (PSR sort gate)” value is reported as “low polyreactivity”. For “QVQLVESGGGLVQAGGSLRLICAASGLIFWRNAMGWYRQAPGKERELVAAISRTGGNTYYADSVKGRFTISRDNAKNTVYLQMNSLKPEDTAVYYCAKDVGKGYGAYPLDYWGQGTQVTVSS”, the “polyreactivity (PSR sort gate)” value was “low polyreactivity”. In the case of “QVQLVESGGGLVQAGGSLRLSCAASGFTFGYYTMGWYRQAPGKERELVAAISSSGGSTYYADSVKGRFTISRDNAKNTVYLQMNSLKPEDTAVYYCAARSVRYGGRYDYWGQGTQVTVSS”, the “polyreactivity (PSR sort gate)” value is reported as “high polyreactivity”. For “QVQLVESGGGVVQAGGSLRLSCAASGITFQYYDMGWFRPAPGKERELVAAISWSTDMTYADSVKGRFTISRDNAKNTDYLQMNSLKPEDTAVYYCAASTYEYTSYDYWGQGTQVTVSS”, the “polyreactivity (PSR sort gate)” value was “low polyreactivity”. With “QDQLVESGGGLVQAGGSLRLSCAASGFTFYRNAMGWYRQAPGKERELVAAISRGGRTYYADSVKGRFTISRDNAKNTVYLQMNSLNPEDTAVYYCAVGYSGYVSSMDYWGQGTQVTVSS” the “polyreactivity (PSR sort gate)” value was “high polyreactivity”. For “QDQLVESGGGLVQAGGSLRLSCAASAFTFGRNAKGWYRQATGKERELVATITWSGGSTYYADSVKGRFTISRDNAKNTVYLQMNSLKPEDTAVYYCAKQRRYWGQPSRAYEFNYWGQGTQVTVSS”, the “polyreactivity (PSR sort gate)” value was “high polyreactivity”. With “QVQLQESGDGLVQADGSLRLSCAASGYISGYYYMGWYRQQPGKERELVAGIDAFGSSTNYADCVKGRFTISRDNGKNTVYLQMISPKPDDTAVYYCAAVYDDWDYHWYWGQGTQVTVSS” the “polyreactivity (PSR sort gate)” value was “low polyreactivity”. In the case of “QVQLVESGGGLVQAGGSLRLSCAASGRTFSNNVMGWYRQAPGKERELVAAISGRGGRTYYADSVKGRFTISRDNAKNTVYLQMNSLKPEDTAVYYCAAGAYWPDEYWGQGTQVSVSS”, the “polyreactivity (PSR sort gate)” value is reported as “high polyreactivity”. For “QVQLVESGGGLVQAGGSLRLSCAASGRTFYSNAMGWYRQPPGKERELVAAIRRSGGSTYYADSVKGRFTISRDNAKNTVYLQMNSLKPEDTAVYYCNAPHHRYDWGQGTQVTVSS”, the “polyreactivity (PSR sort gate)” value was “high polyreactivity”. In the case of “QVQLVESGGGLVQAGGSLRLSCAASGSIFAYYAMGWYRQAPGKERELVAAISRRGGSTYYADSVKGRFTISRDNAKNTGYLQMNSLQPEDTAVYYCAADIGPRYDSWGLGTQVTVSS”, the “polyreactivity (PSR sort gate)” value is reported as “high polyreactivity”. In the case of “QVQLVESGGGLVQAGGSLRLSCAASGIIFGDNAMGWYRQAPGKERELVAAISSSGTSTNYADSVKGRFTISRDNAKNTVYLQMNSLKPEDSAVYYCAKDVLPPYPQSPSGGDYWGQGTQVTVSS”, the “polyreactivity (PSR sort gate)” value is reported as “low polyreactivity”. In the case of “QVQLQESGGGLVQAGGSLRLSCEASGSISHYIFMGWYRQAQGKEREFVAGIGYGGTTNYADSVKGRFTISRDNAKNTVYLQMNSLKPEDTAMYYCAAREATEFYLYYWGQGTQVTVSS”, the “polyreactivity (PSR sort gate)” value is reported as “low polyreactivity”. With “QVQLVESGRGIVQAGRSLRLSCPASGRIYPNAIGWYRQAPGKEREFVAAISRSDGSTYYADSVNGRFTISRDNAKNTVYLQMNSLKPEDTAVYYCATDYRFTSRTANFDYWGQGTLVTVSS” the “polyreactivity (PSR sort gate)” value was “low polyreactivity”. For “QVQLVESGGGLVQAGGSLRLSCAASGSTFSDYAMGWYRQAPGKERELVAAISDSGSGTYYADSVKGRFTISRDNAKNTVYLQMNSLKPEDTAVYYCNTDPRFAMDWGQGTQVTVSS”, the “polyreactivity (PSR sort gate)” value was “low polyreactivity”. For “QVQLVESGGGLVQAGGSLRLSCAASGSSRIYDMGWYRQAPGKERVWVAAISSTGSTYYADSEKGRYTISRDNAKNTGYLQMNSLKPEETADYYCAAARYYRYDSYSSWGQGTQVTVSS”, the “polyreactivity (PSR sort gate)” value was “high polyreactivity”. In the case of “QVQLVESGGGLVQAGGSLRLSCAASGFTFYTNAMGWYRQAPGKERELVAAITKSDGSTYYADSVKGRFTISRDNAKNTVYLQMNSLKPEDTAVYYCATERRYPYYGGIVIYDYWGQGTQVTVSS”, the “polyreactivity (PSR sort gate)” value is reported as “low polyreactivity”. For “QVQLVESGGGLVQAGGSLRLSCAASGGNFYYYVMGWYRQAPGKERELVAAITWSGGSTSYADSVKGRFTISRDNAKNTVYLQMNSLKPEDTAVYYCNADSTTQDYDYWGQGTQVSVSS”, the “polyreactivity (PSR sort gate)” value was “low polyreactivity”. With “QFQLVESGGGLVQAGGSLRLSCAASGRIFVQYAMGWYRQATGKQTEFVAAISYRGGSTYYADSVKGRFTISRDNSKITVYLPMNSLKPEDTAVYYCAIVFPYRGKVTLDYWVQGTQVTVSS” the “polyreactivity (PSR sort gate)” value was “low polyreactivity”. For “QVQLVESGGGLVKAGGSLRLRCAASGITFRYNAMGWYRQAPGKERELVAAITSSGGRTYYADSVKGRFTISRDNAKNTVYLQMNSLKPEDTAVYYCAARTRYRKEYDYWGQGTQVTVSS”, the “polyreactivity (PSR sort gate)” value was “high polyreactivity”. In the case of “QVQLVESGGGLVQAGGILRLSCAASGRIFRGYAMGWYIQAPAKERELVASIDWNGGRTYYADSEKGRFTISRDNAKNTVYLQMNSLKPEDTAVYYCAVLPYRTLYNYYYWGQGTQVTVSS”, the “polyreactivity (PSR sort gate)” value is reported as “high polyreactivity”. With “QVQLVESGGGLVQAGGSLRLSCAASGLTLFRNAMGWYRQAPGKERELVAAISSGGSTYYADSVKGRFTISRDNAKNTVYLQMNSLKPEDTAVYYCATDSVSPVEEEDYWGQGTQVTVSS” the “polyreactivity (PSR sort gate)” value was “low polyreactivity”. For “QVQLVESGGGLVQAGGSLRLSCAASGSTFVSYAMGWYRQAPGKERELVAAISSGGGSTYYADSVKGRFTISRDNAKNTVYLQMNSLKPEDTAVYYCAARGYAYRAQYGYWGQGTQVTVSS”, the “polyreactivity (PSR sort gate)” value was “high polyreactivity”. For “QVQLVESGGGLVQAGGSLRLSCAASGRIFWWYAMGWYRQAPGKERELVAVIDDSGGITYYADSVKGRFTISRDNAKHTVYLQMNSLKPEDTAVYYCARNVNAQKVLGGFDSWGQGTQVTVSS”, the “polyreactivity (PSR sort gate)” value was “low polyreactivity”. For “QVQLVESGGGLVQAGGSLRLSCAASGRIFRYYAMGWYRQAPGKERELVAAISYSTGGTYYADSVKGRFTISRDNAKNTVYLQMNSLIPEDTAVYYCAARGPLDRYGYWGQGTQVTVSS”, the “polyreactivity (PSR sort gate)” value was “high polyreactivity”. With “QVQLVDSRGGLDQAGGSHRLSCAASGSTFSTNVMGWYRQAPGKERELVAAISISGTTTYYADSVKGRFTISRDNAKNTVYLQMNSLKPEDTAVYYCAAENYVAWTWHDYWGQGTQVTVSS” the “polyreactivity (PSR sort gate)” value was “high polyreactivity”. For “QVQLGESGGGLDQAGGSLRLSCAASGRTFTNNAMGWYRQAPGKERELVAAITSGGRTNYADSVKGRFTISRDNAKNTVYLQMNSLKPEDTAVYYFAARIPSDGYYYWGQGTQVTVSS”, the “polyreactivity (PSR sort gate)” value was “high polyreactivity”. With “QVLLQESGGGLVEAGGSLRLSCAASGTISTDIRMGWYRLAPGKEREFVASIDGGSTTYYADSVKGRFTISRDNAKNTVYLQMNSLKPQDTAMYYCAAGEATEFYLYYWGQGTQVTVSS” the “polyreactivity (PSR sort gate)” value was “low polyreactivity”. For “QVQLVESGGGLVQAGGSLRLSCAASGFIFSYYAMGWYRQAPGKERELVADITSGGSTNYADSVKGRFTISRDNAKNTVYLQMNSLKPEDTAVYYCAATGLPGYYAYDYWGQGTQVTVTS”, the “polyreactivity (PSR sort gate)” value was “low polyreactivity”. With “QVQLVESGGGIVQSGGSLRLSFAASGSIVDWNAMGWYRQAPGKARELVASISSGGSTDYADSVKGRFTISRDNAKNTVYLQMNSLKPEDTAVYYCNADAYAYYPPRWYYGYDYWGQGTQVTVSS” the “polyreactivity (PSR sort gate)” value was “low polyreactivity”. For “QDQLVESGGGIVQAGGRLRLSCAASGSIFRYYAMGWYRQAPGKERDLVAAINWDGGSTYYADSVKGRFTISRDNAKNTVYLQMNSLKPEDTAVYYCATTSRVYAYGYRTSNYWGQGTQVTVSS”, the “polyreactivity (PSR sort gate)” value was “high polyreactivity”. In the case of “QVQLVESGGGLVQAGGSLRLSCAASGLTLSGNAMGWYRQAPGKERELVAAITGRGGSTTYADSVKGRFTISRDNAKNTVYLLMNSLKPEDTAVYYCAADGRWYWDYEYWGQGTQVTVSS”, the “polyreactivity (PSR sort gate)” value is reported as “low polyreactivity”. For “QVQLVESGGGLVQAGGSLRLSCAASGSIFAPYAMGWYRQAPGTERELVAAITWSGDSTYYADSVKGRFTISRDNAKNTVYLQMNSLKPEDTAVYYCATEEVYGQGNYWGQGTQVTVSS”, the “polyreactivity (PSR sort gate)” value was “low polyreactivity”. With “QVQLVESGGGLVQAGGSLRLSCAASGRIFDYNTMGWYRQAPGKERELVAAITGGTGSTYYADSVKGRFTISRDNAKNTVYLQMNSLKPEDTAVYYCAAGFHKRVSPEILYDYWGQGTLVTVSS” the “polyreactivity (PSR sort gate)” value was “low polyreactivity”. With “QVQLVESGGGLVQAGGRLRLRCAASGSTFSYYAMGWYRQAPGKERELVADISSGGTTNYADSVKGRFTISRDNAKNTVYLQMNSLKPEDTSVYYCNRRYSYYDGFDYWGQGTQVTVSS” the “polyreactivity (PSR sort gate)” value was “low polyreactivity”.
